# Laboratory results published in article doi:10.1101/2022.05.27.493400.
# pKd: −log10 of the molar value. Values joined by “and” are separate entries in the source; they are usually repeats but may differ in a detail not shown here. Identical values can stand only once.
# Target: SARS-CoV-2 spike protein, extraviral domain (aa 1-1213) (SARS-CoV-2) (UniProt P0DTC2)
# Test: SPR
substance,measurement,value
pineapple-derived jacalin-related lectin AcmJRL (natural protein),"KD of a single replicate, from Langmuir isotherm",7.9 µM and 11.5 µM and 14 µM
same,"KD of a single replicate, from rate constants",3.1 µM and 4 µM and 2.7 µM
same,pKd,5.49 and 4.95
same,koff,0.00342 s⁻¹
same,kon,1060 M⁻¹ s⁻¹
